Measurements reported in patent publication US9144594B2, “Cathepsin L mediated diseases and associated methods and products” (University of Miami, priority 2005, dated 2015).
Changes are numbered by the printed parent chain. Names may count otherwise. “Also recorded” adds a separate entry of the source.

B1: dynK44A: dominant-negative dynamin mutant that cannot bind GTP (protein, UniProt Q05193 1-864, looked up, variant K44A)
Dynamin-1: MGNRGMEDLIPLVNRLQDAFSAIGQNADLDLPQIAVVGGQSAGASSVLENFVGRDFLPRGSGIVTRRPLVLQLVNATTEYAEFLHCKGKKFTDFEEVRLEIEAETDRVTGTNKGISPVPINLRVYSPHVLNLTLVDLPGMTKVPVGDQPPDIEFQIRDMLMQFVTKENCLILAVSPANSDLANSDALKVAKEVDPQGQRTIGVITKLDLMDEGTDARDVLENKLLPLRRGYIGVVNRSQKDIDGKKDITAALAAERKFFLSHPSYRHLADRMGTPYLQKVLNQQLTNHIRDTLPGLRNKLQSQLLSIEKEVEEYKNFRPDDPARKTKALLQMVQQFAVDFEKRIEGSGDQIDTYELSGGARINRIFHERFPFELVKMEFDEKELRREISYAIKNIHGIRTGLFTPDMAFETIVKKQVKKIREPCLKCVDMVISELISTVRQCTKKLQQYPRLREEMERIVTTHIREREGRTKEQVMLLIDIELAYMNTNHEDFIGFANAQQRSNQMNKKKTSGNQDEILVIRKGWLTINNIGIMKGGSKEYWFVLTAENLSWYKDDEEKEKKYMLSVDNLKLRDVEKGFMSSKHIFALFNTEQRNVYKDYRQLELACETQEEVDSWKASFLRAGVYPERVGDKEKASETEENGSDSFMHSMDPQLERQVETIRNLVDSYMAIVNKTVRDLMPKTIMHLMINNTKEFIFSELLANLYSCGDQNTLMEESAEQAQRRDEMLRMYHALKEALSIIGDINTTTVSTPMPPPVDDSWLQVQSVPAGRRSPTSSPTPQRRAPAVPPARPGSRGPAPGPPPAGSALGGAPPVPSRPGASPDPFGPPPQVPSRPNRAPPGVPSRSGQASPSRPESPRPPFDL
B2: dynK694A: dominant activator dynamin mutant impaired in self-assembly (protein)
chain: B1 Dynamin-1 with A44K, K694A
B3: dynR725A: dynamin mutant (SEQ ID NO.4) with impaired GTP hydrolysis capacity (protein, listed as Homo sapiens)
chain: B1 Dynamin-1 with A44K, R725A
B4: dynL356Q, G358V: dynamin mutant (SEQ ID NO.3) not recognized by cathepsin L; ELSGGA mutated to EQSVGA (protein, listed as Homo sapiens)
chain: B1 Dynamin-1 with A44K, L356Q, G358V

Experiments:
podocytes = test: Rhodamine-transferrin uptake (endocytosis) in podocytes; format: cell-based, mouse; conditions: overexpression in podocytes
Description: Since dynamin is known to play a major role in regulation of clathrin-mediated endocytosis, it appeared possible that the observed actin phenotypes as described above were indirect consequence of changes in endocytosis. […] While LPS treatment of cells overexpressing dynWT had no effect on endocytosis of rhodamine-transferrin (FIG. 1D), it did induce cell motility and changes in actin cytoskeleton.
Conditionally immortalized mouse podocyte cell lines were grown as described previously (Mundel et al., Exp Cell Res 236; 248-258; (1997)). Dynamin antibodies: Anti-dynamin (hudy 1) monoclonal antibody was purchased from Upstate Technology (Lake Placid, N.Y.); mouse anti-dyn1 monoclonal antibody (MAB 5402) was from Chemicon (Temecula, Calif.); mouse anti-dyn1 monoclonal antibody (VAM-SVO41) was from StressGene (Victoria, Canada). The rabbit antiserum against mouse CatL was used as described (Ishidoh and Kominami, 1994). For immunogold and immunocytochemistry analysis of CatL, we used a rabbit polyclonal antibody against CatL as described before (Ahn et al., Traffic 3, 147-159 (2002)). CatL −/− fibroblasts were maintained as described previously (Hsieh et al., J Immunol 168, 2618-2625 (2002)). Stable CatL knock-down cell lines were generated with a vector-based siRNA directed against CatL (target sequence 5′-GTGGACTGTTCTCACGCT-3; SEQ ID NO.32). Quantitative PCR was performed on a Applied Biosystems 7300 Real-Time PCR System. Fold-expression changes were calculated using the comparative CT method for relative quantitation with the equation 2^−ΔΔCT. Protein expression levels for dynamin and CatL were calculated using densitometric analysis with Kodak imaging software. Statistical significance was assessed with the unpaired t-test with Welch's correction. Transfections with CatL constructs were performed using Lipofectamine 2000 (Invitrogen) following manufacturer's instructions. Immunocytochemical analysis of cultured podocytes was done as described (Reiser et al., J Biol Chem 279, 34827-34832 (2004)). Immunoperoxidase labeling of human tissue was done on formalin fixed kidney biopsies embedded in paraffin. Transmission electron microscopy (TEM) and immunoelectron microscopy (IEM) were performed as described (Regele et al., J Am Soc Nephrol 11, 403-412 (2000)). Subcellular fractionation of cultured cells was performed as described (Damke et al., J Cell Biol 127, 915-934 (1994)). Internalization of rhodamine-transferrin (R-Tfn) was performed using 20 μg/ml R-Tfn in PBS containing 1 mM CaCl2, 1 mM MgCl2, 5 mM glucose, and 0.2% BSA for 10 min at 37° C.

cathepsin L = test: Generation of dynamin p40 fragment in LPS-treated cultured podocytes (Western blot); format: cell-based, mouse; conditions: podocytes expressing the variant, LPS-treated
Source text: Next, it was examined whether cathepsin L could process dynamin in vivo, and whether this processing required GTP binding by dynamin. To this end, cultured podocytes were infected with adenoviruses expressing dynWT as well as different dynamin mutants. Infected podocytes were subsequently treated with LPS. LPS treatment increases cathepsin L presence and the activity in the cytosol (FIG. 3), and thus is expected to induce generation of the 40 kD proteolytic fragment. Respective cytosols were probed using the GTPase antibodies in order to detect N-terminal 40 kD proteolytic fragment. Expression of dynWT in podocytes treated with LPS identified proteolytic fragments that traveled with the same mobility as fragments observed in vitro. […] Furthermore, significant amount of p40 was present in cells expressing dynR725A prior to LPS treatment. […] Given complete protection of cathepsin L cleavage by GTPγS, it was reasoned that LPS treatment was somehow inducing dynR725A self-assembly, which in turn was protecting dynR725A from cathepsin L cleavage. This in turn would explain ability of dynR725A to counteract LPS and PAN treatment (FIG. 1D). […] Biochemical difference between dynWT, dynK694A and dynR725A is that only dynR725A is impaired in the rate of GTP-hydrolysis of assembled dynamin. This is important because GTP-hydrolysis drives disassemble of dynamin. Thus, while all three dynamins are predicted to self-assemble by LPS treatment, only dynR725A will stay assembled due to its inability to hydrolyze GTP. Once assembled dynWT and dynK694A hydrolyze GTP they will fall apart and thus become accessible for cathepsin L cleavage.
To explore CatL-mediated dynamin cleavage in vivo, cultured podocytes were infected with adenoviruses encoding different dynamin mutants and subsequently treated with LPS (FIG. 19G). […] To confirm the identity of the cleavage site, the ELSGGA (SEQ ID NO.29) sequence was mutated to EQSVGA (SEQ ID NO.31) (for simplicity, the mutant is subsequently referred to as dynL356Q). […] Finally, a GTPase-defective dynamin mutant was examined. Dynamin carrying a mutation in its […] (dynR725A) oligomerizes, but is impaired in assembly-stimulated GTP-hydrolysis. DynR725A is therefore predicted to live longer in the assembled state.
Podocytes were grown under non-permissive conditions to 70% confluence. Cells were washed twice with 1×PBS and infected with 1.2 ml of serum-free DMEM media containing 100 μl transactivator virus, 100 μl virus expressing dyn1 or dyn2. After 2 h of infection at 37° C., media containing virus was replaced with full DMEM. If cells were treated with LPS or PAN, 50 μg/ml of LPS or 50 μg/ml PAN was added at this point. 18-24 h post-infection, cells were detached using trypsin and processed either for subcellular fractionation or tested in the motility assays as described in (Reiser et al., J Biol Chem 279, 34827-34832 (2004)). When stated, 20 μM of Z-FF-FMK CatL specific inhibitor (Calbiochem, San Diego, Calif.) was added simultaneously with addition of LPS.

podocyte FP = test: Podocyte foot process architecture by electron microscopy after gene delivery; format: in vivo, mouse; conditions: gene delivery into wildtype mice
Source text: Next it was explored whether gene delivery of dynamin mutants dynR725A and dynL356Q, G358V into mice can be expressed in podocytes and if this procedure can affect podocyte FP architecture and function. First, we needed to establish a safe and reliable detection system of transferred gene expression in podocytes. Therefore we analyzed which dynamin isoforms are expressed in podocytes by RT-PCR. Podocytes express mainly dynamin 2 and little dynamin 3 but no dynamin 1 (FIG. 5A). Gene-transfer CMV promotor driven dynamin 1 constructs were used because neuronal dynamin protein is normally not expressed in podocytes and could be easily tracked by a specific monoclonal dynamin 1 antibody (FIG. 5B). […] Monoclonal dynamin antibodies MAB 5402 […] were used, which predominantly recognize dynamin 1 (FIG. 5B). Labeling of glomerular sections with MAB 5402 detected some minimal background labeling of dynamin, representing endogenous dynamin 2 (FIG. 5C). The gene transfer of dynamin 1 expression vectors led to a strong expression of dynamin 1 in glomerular cells including podocytes (FIG. 5D). Some of this labeling was also detected in podocytes, which are marked positively by synaptopodin staining, resulting in a yellow staining pattern (FIG. 5E).

cathepsin L, sequence (P06797 114-333 limits assumed): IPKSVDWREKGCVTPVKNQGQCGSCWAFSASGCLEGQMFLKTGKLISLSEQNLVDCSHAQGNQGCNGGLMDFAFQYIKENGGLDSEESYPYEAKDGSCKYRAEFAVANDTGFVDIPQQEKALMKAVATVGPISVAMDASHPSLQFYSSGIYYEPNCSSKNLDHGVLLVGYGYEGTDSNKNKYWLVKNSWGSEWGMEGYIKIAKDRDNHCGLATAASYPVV

Molecule	transferrin uptake (endocytosis), in words (podocytes)	p40 generation from dynamin variant, in words (cathepsin L)	podocyte FP architecture, in words (podocyte FP)
dynWT: wild type dynamin overexpressed by adenovirus or delivered as dynamin 1 cDNA	did not enhance the overall transferring uptake	resulted in generation of p40	did not result in changes of podocyte FP architecture
B1	completely inhibited transferring uptake	did not result in detectable levels of p40	induced a severe rearrangement of the actin based podocyte FPs
B2	lead to increase in transferring uptake	–	–
B3	exhibited the wild-type levels of endocytosis	completely abolished presence of the p40; also recorded: did not generate p40	resulted in partial FP effacement
B4	–	yielded no p40	did not show any significant changes in podocyte FP structure
